US7687489B2, “Agent for treatment of cerebral ischemic diseases” (Ono Pharmaceutical Co., Ltd., priority 2001, dated 2010)

Tested on: thrombin-induced focal cerebral ischemic model
Assay: Thrombin-induced focal cerebral ischemic model: survival and neurological symptom score
Type: in vivo, male Wistar rats
Protocol: Twenty male Wistar rats (8-weeks age) were used as one group. The rats were anesthetized with halothane, followed by incision and then subjected to carotid artery shunting. A polyethylene catheter containing thrombin (10 international units) was catheterized into the carotid artery, and […] of blood was sucked and reserved in the catheter for 10 minutes. Then, thrombus formed in the catheter was infused into the carotid artery together with thrombin (J. Cereb. Blood Flow Metab., 17, 123 (1997)).
The neurological symptoms of said rats were scored according to the method as described in Brain Res., 452, 323 (1988). The evaluation of score was carried out at 6 hours, 24 hours, 48 hours and 72 hours after infusion of thrombin, and the scores were accumulated. The survival period was determined by monitoring surviving or dead rats at intervals of one hour for the first 72 hours after the infusion of thrombin.
From forty minutes after thrombin infusion, t-PA (Activacin 100,000 international units, product of Kyowa Hakko Kogyo Co., Ltd.) was continuously administered in an amount of 33 μL/min to the anesthetized rats for 15 minutes. (R)-2-propyloctanoic acid (hereinafter referred to as compound A) in an amount of 10 mg/mL/kg was administered through tail vein of the rats three times at 6 hours, 24 hours and 48 hours after the infusion of thrombin.

[1] = accumulated score, rats surviving 72 h, average ± standard error

B1: t-PA: tissue plasminogen activator, thrombolytic agent (Activacin, product of Kyowa Hakko Kogyo Co., Ltd.) (protein, UniProt P00750 36-562, looked up)
Tissue-type plasminogen …: SYQVICRDEKTQMIYQQHQSWLRPVLRSNRVEYCWCNSGRAQCHSVPVKSCSEPRCFNGGTCQQALYFSDFVCQCPEGFAGKCCEIDTRATCYEDQGISYRGTWSTAESGAECTNWNSSALAQKPYSGRRPDAIRLGLGNHNYCRNPDRDSKPWCYVFKAGKYSSEFCSTPACSEGNSDCYFGNGSAYRGTHSLTESGASCLPWNSMILIGKVYTAQNPSAQALGLGKHNYCRNPDGDAKPWCHVLKNRRLTWEYCDVPSCSTCGLRQYSQPQFRIKGGLFADIASHPWQAAIFAKHRRSPGERFLCGGILISSCWILSAAHCFQERFPPHHLTVILGRTYRVVPGEEEQKFEVEKYIVHKEFDDDTYDNDIALLQLKSDSSRCAQESSVVRTVCLPPADLQLPDWTECELSGYGKHEALSPFYSERLKEAHVRLYPSSRCTSQHLLNRTVTDNMLCAGDTRSGGPQANLHDACQGDSGGPLVCLNDGRMTLVGIISWGLGCGQKDVPGVYTKVTNYLDWIRDNMRP
- Survival rate after 72 hours (72 hours after thrombin infusion, 20 rats per group, * p<0.05 vs control (Log-rank test)): 35.0%
- No. of surviving rats (72 hours after thrombin infusion, 20 rats per group, t-PA infused from 40 min for 15 min, compound A 10 mg/mL/kg i.v. at 6, 24, 48 h): 7
- Neurological symptom score, 0 to 6 hours [1]: 3.4 ± 0.2
- Neurological symptom score, 0 to 24 hours [1]: 3.4 ± 0.2
- Neurological symptom score, 0 to 48 hours [1]: 3.1 ± 0.3
- Neurological symptom score, 0 to 72 hours [1]: 3.0 ± 0.3
